Measurements published in the Immune Epitope Database (IEDB).

Key:
[1] = molecular target: HLA-C*14:02; assay: IEDB peptide-MHC binding, purified MHC/direct/fluorescence; filed as Kd, often an IC50 or EC50 that approximates it; ≥ and ≤ were set here for values at or beyond the usual limits of such assays
[2] = molecular target: HLA-B*07:02; assay: as above; settings: source organism: Mus musculus
[3] = molecular target: HLA-C*12:03; assay: as above; settings: source organism: Rattus norvegicus
[4] = molecular target: HLA-C*03:03; assay: as above
[5] = molecular target: HLA-B*45:06; assay: IEDB peptide-MHC binding, purified MHC/competitive/fluorescence; filed as Kd, often an IC50 or EC50 that approximates it; ≥ and ≤ were set here for values at or beyond the usual limits of such assays
[6] = molecular target: HLA-B*15:42; assay: as above
[7] = molecular target: HLA-B*27:03; assay: as above
[8] = molecular target: HLA-B*83:01; assay: as above
[9] = molecular target: HLA-C*14:02; assay: as above; settings: source organism: Rattus norvegicus
[10] = molecular target: HLA-B*15:17; assay: as above
[11] = molecular target: HLA-A*68:02; assay: IEDB peptide-MHC binding, purified MHC/direct/fluorescence; filed as Kd, often an IC50 or EC50 that approximates it; ≥ and ≤ were set here for values at or beyond the usual limits of such assays
[12] = molecular target: HLA-A*02:01; assay: as above
[13] = molecular target: HLA-A*26:01; assay: as above
[14] = molecular target: HLA-B*51:01; assay: as above
[15] = molecular target: HLA-B*15:01; assay: as above
[16] = molecular target: HLA-A*02:11; assay: as above
[17] = molecular target: HLA-B*46:01; assay: as above
[18] = molecular target: HLA-A*02:16; assay: as above
[19] = molecular target: HLA-B*57:01; assay: as above
[20] = molecular target: HLA-A*02:12; assay: as above
[21] = molecular target: HLA-B*27:03; assay: as above
[22] = molecular target: HLA-B*18:01; assay: as above
[23] = molecular target: HLA-A*02:03; assay: as above
[24] = molecular target: HLA-A*03:01; assay: as above
[25] = molecular target: HLA-B*39:01; assay: as above
[26] = molecular target: HLA-A*02:19; assay: as above
[27] = molecular target: HLA-A*02:01; assay: IEDB peptide-MHC binding, purified MHC/competitive/radioactivity; ≥ and ≤ were set here for values at or beyond the usual limits of such assays
[28] = molecular target: HLA-A*29:02; assay: IEDB peptide-MHC binding, purified MHC/direct/fluorescence; filed as Kd, often an IC50 or EC50 that approximates it; ≥ and ≤ were set here for values at or beyond the usual limits of such assays
[29] = molecular target: HLA-A*24:03; assay: as above
[30] = molecular target: HLA-C*05:01; assay: as above; settings: source organism: Mycobacterium tuberculosis str. Haarlem
[31] = molecular target: HLA-B*46:01; assay: IEDB peptide-MHC binding, purified MHC/competitive/fluorescence; filed as Kd, often an IC50 or EC50 that approximates it; ≥ and ≤ were set here for values at or beyond the usual limits of such assays; settings: source organism: Mycobacterium tuberculosis str. Haarlem
[32] = molecular target: HLA-A*26:01; assay: IEDB peptide-MHC binding, purified MHC/competitive/radioactivity; filed as Kd, often an IC50 or EC50 that approximates it; ≥ and ≤ were set here for values at or beyond the usual limits of such assays; settings: source organism: Dengue virus 1 Brazil/97-11/1997
[33] = molecular target: HLA-B*15:02; assay: IEDB peptide-MHC binding, purified MHC/direct/fluorescence; filed as Kd, often an IC50 or EC50 that approximates it; ≥ and ≤ were set here for values at or beyond the usual limits of such assays; settings: source organism: dengue virus type 4
[34] = molecular target: HLA-C*15:02; assay: as above; settings: source organism: dengue virus type 1
[35] = molecular target: HLA-A*26:01; assay: IEDB peptide-MHC binding, purified MHC/competitive/fluorescence; filed as Kd, often an IC50 or EC50 that approximates it; ≥ and ≤ were set here for values at or beyond the usual limits of such assays
[36] = molecular target: HLA-B*51:01; assay: as above; settings: source organism: Orthohantavirus andesense
[37] = molecular target: HLA-B*57:01; assay: as above; settings: source organism: Orthohantavirus andesense
[38] = molecular target: HLA-B*18:01; assay: as above; settings: source organism: Orthohantavirus andesense
[39] = molecular target: HLA-A*69:01; assay: as above; settings: source organism: Orthohantavirus andesense
[40] = molecular target: HLA-C*07:02; assay: IEDB peptide-MHC binding, purified MHC/direct/fluorescence; filed as Kd, often an IC50 or EC50 that approximates it; ≥ and ≤ were set here for values at or beyond the usual limits of such assays
[41] = molecular target: HLA-C*06:02; assay: as above; settings: source organism: Escherichia coli F11
[42] = molecular target: HLA-B*15:01; assay: IEDB peptide-MHC binding, purified MHC/competitive/fluorescence; filed as Kd, often an IC50 or EC50 that approximates it; ≥ and ≤ were set here for values at or beyond the usual limits of such assays; settings: source organism: Escherichia coli F11
[43] = molecular target: HLA-A*24:03; assay: as above; settings: source organism: Escherichia coli F11
[44] = molecular target: HLA-A*01:01; assay: as above; settings: source organism: Escherichia coli F11
[45] = source organism: Rattus norvegicus
[46] = source organism: Mycobacterium tuberculosis str. Haarlem
[47] = source organism: Rickettsia bellii RML369-C
[48] = source organism: Entamoeba histolytica HM-1:IMSS
[49] = source organism: Orthohantavirus andesense
[50] = source organism: Escherichia coli F11

In the case of AARIAGRHM, the Kd ([1]; source organism: Mycobacterium tuberculosis variant bovis BCG str. Pasteur 1173P2) is reported as 0.654 µM.
FLRKNQRAL gave a Kd [2] of 0.0009 µM, a Kd [3] of 0.383 µM and a Kd [4, 45] of 0.052 µM. It also gave a Kd [5, 45] of no less than 5 µM, a Kd [6, 45] of no less than 5 µM and a Kd [7, 45] of no less than 20 µM. It also gave a Kd [8, 45] of no less than 5 µM, a Kd [9] of 0.0129 µM and a Kd [10, 45] of no less than 20 µM.
In the case of LPVEYLQVP, the Kd [11, 46] is reported as no less than 20 µM, the Kd [12, 46] is reported as no less than 20 µM and the Kd [13, 46] is reported as no less than 20 µM. For the same sequence, the Kd [14, 46] was no less than 20 µM, the Kd [15, 46] was no less than 20 µM and the Kd [16, 46] was no less than 20 µM. The Kd [17, 46] was no less than 20 µM, the Kd [18, 46] was no less than 20 µM and the Kd [19, 46] was no less than 20 µM. For the same sequence, the Kd [20, 46] was no less than 20 µM, the Kd [21, 46] was no less than 20 µM and the Kd [22, 46] was no less than 20 µM. It also gave a Kd [23, 46] of no less than 20 µM, a Kd [24, 46] of no less than 20 µM and a Kd [25, 46] of no less than 20 µM. It also gave a Kd [26, 46] of no less than 20 µM.
Work on NLYVSLLLL yielded an IC50 ([27]; source organism: Hepatitis B virus subtype ayw) of 0.077 µM.
Work on NPLEIYQEI yielded a Kd [12, 47] of no less than 20 µM, a Kd [13, 47] of no less than 20 µM and a Kd [14, 47] of 0.132 µM. For the same sequence, the Kd [15, 47] was no less than 20 µM, the Kd [16, 47] was no less than 20 µM and the Kd [28, 47] was no less than 20 µM. For the same sequence, the Kd [17, 47] was no less than 20 µM, the Kd [29, 47] was no less than 20 µM and the Kd [18, 47] was no less than 20 µM. For the same sequence, the Kd [19, 47] was no less than 20 µM, the Kd [20, 47] was no less than 20 µM and the Kd [21, 47] was no less than 20 µM. For the same sequence, the Kd [22, 47] was no less than 20 µM, the Kd [23, 47] was no less than 20 µM and the Kd [24, 47] was no less than 20 µM. It also gave a Kd [25, 47] of no less than 20 µM and a Kd [26, 47] of no less than 20 µM.
QMVSSVTFI showed an IC50 ([27]; source organism: Rhinovirus A) of 0.2 µM.
With SLADTNSLAV the IC50 ([27]; source organism: Homo sapiens) was 0.0794 µM.
Sequence VKINIFPLY has a Kd [11, 48] of no less than 20 µM, a Kd [12, 48] of no less than 20 µM and a Kd [13, 48] of no less than 20 µM. For the same sequence, the Kd [14, 48] was no less than 20 µM, the Kd [17, 48] was no less than 20 µM and the Kd [18, 48] was no less than 20 µM. It also gave a Kd [19, 48] of no less than 20 µM, a Kd [20, 48] of no less than 20 µM and a Kd [21, 48] of no less than 20 µM. It also gave a Kd [23, 48] of no less than 20 µM, a Kd [24, 48] of no less than 20 µM and a Kd [25, 48] of no less than 20 µM. For the same sequence, the Kd [26, 48] was no less than 20 µM.
Work on YAREAGIAM yielded a Kd [30] of no less than 20 µM, a Kd [4, 46] of no less than 20 µM and a Kd [5, 46] of no less than 5 µM. For the same sequence, the Kd [6, 46] was no less than 5 µM, the Kd [31] was no less than 20 µM and the Kd [8, 46] was no less than 5 µM.
YLAGAGLAF showed a Kd [32] of 0.401 µM, a Kd ([17]; source organism: Dengue virus 1 Singapore/S275/1990) of 0.118 µM and a Kd [33] of 0.003 µM. The Kd [34] was no less than 20 µM and the Kd ([1]; source organism: dengue virus type 1) was 0.046 µM.
Work on YLIPSVTSL yielded a Kd [11, 49] of no less than 20 µM, a Kd [12, 49] of 0.0018 µM and a Kd [28, 49] of no less than 20 µM. It also gave a Kd [29, 49] of no less than 20 µM, a Kd [20, 49] of no less than 20 µM and a Kd [24, 49] of no less than 20 µM. For the same sequence, the Kd [26, 49] was no less than 20 µM, the Kd [4, 49] was no more than 0.001 µM and the Kd [35, 49] was no less than 20 µM. The Kd [36] was no less than 20 µM, the Kd [37] was no less than 20 µM and the Kd [7, 49] was no less than 20 µM. For the same sequence, the Kd [38] was no less than 20 µM, the Kd [39] was no less than 20 µM and the Kd [10, 49] was no less than 20 µM.
Work on YRHKNYYAL yielded a Kd ([40]; source organism: Vaccinia virus) of 0.057 µM.
YTLNNGGAF gave a Kd [41] of no less than 20 µM, a Kd [40, 50] of 0.991 µM and a Kd [35, 50] of 0.0927 µM. The Kd [42] was 0.0594 µM, the Kd [43] was 0.0151 µM and the Kd [44] was no less than 20 µM.
